Target: CV30 (human)
Assay: BLI

In the case of “SARS-CoV-2 receptor binding domain (from UniProt P0DTC2 319-591) (domain or fragment)”, the Kd is reported as 3.6 nM.
